Where no end group is shown, it is not given here.
Key:
[1] = target: T1, LGR7 (leucine-rich repeat-containing GPCR 7) (human) (UniProt Q9HBX9); test: cell-based or functional assay
T1 sequence (looked up): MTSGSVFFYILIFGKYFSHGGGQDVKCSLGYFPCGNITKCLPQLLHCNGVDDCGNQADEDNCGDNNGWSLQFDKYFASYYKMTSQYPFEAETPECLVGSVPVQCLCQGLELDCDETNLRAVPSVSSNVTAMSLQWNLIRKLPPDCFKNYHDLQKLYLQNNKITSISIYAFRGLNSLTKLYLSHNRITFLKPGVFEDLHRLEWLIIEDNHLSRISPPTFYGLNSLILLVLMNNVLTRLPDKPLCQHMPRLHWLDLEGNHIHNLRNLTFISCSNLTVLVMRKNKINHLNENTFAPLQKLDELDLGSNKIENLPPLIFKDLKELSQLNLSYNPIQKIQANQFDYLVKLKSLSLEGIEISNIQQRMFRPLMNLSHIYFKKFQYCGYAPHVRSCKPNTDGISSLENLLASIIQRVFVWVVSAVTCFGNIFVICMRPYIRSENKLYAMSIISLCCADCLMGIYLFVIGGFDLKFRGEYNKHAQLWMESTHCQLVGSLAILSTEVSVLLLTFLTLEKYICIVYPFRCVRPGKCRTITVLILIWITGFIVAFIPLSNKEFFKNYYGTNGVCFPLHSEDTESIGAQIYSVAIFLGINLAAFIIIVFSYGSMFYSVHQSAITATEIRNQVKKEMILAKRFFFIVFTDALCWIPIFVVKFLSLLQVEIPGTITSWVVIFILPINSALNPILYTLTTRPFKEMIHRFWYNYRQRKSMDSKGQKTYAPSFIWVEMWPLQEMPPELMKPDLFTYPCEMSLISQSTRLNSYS

[2] = target: T2, LGR7 (leucine-rich repeat-containing GPCR 7) (human, UniProt Q9HBX9 1-757); test: competition with 125I-RLN2 tracer on LGR7-expressing HEK293T cells
T2 construct: whole, on cells; The methods say only 'recombinant LGR7' stably expressed in HEK293T cells; also called RFXR1; recombinant LGR7
T2 sequence (looked up): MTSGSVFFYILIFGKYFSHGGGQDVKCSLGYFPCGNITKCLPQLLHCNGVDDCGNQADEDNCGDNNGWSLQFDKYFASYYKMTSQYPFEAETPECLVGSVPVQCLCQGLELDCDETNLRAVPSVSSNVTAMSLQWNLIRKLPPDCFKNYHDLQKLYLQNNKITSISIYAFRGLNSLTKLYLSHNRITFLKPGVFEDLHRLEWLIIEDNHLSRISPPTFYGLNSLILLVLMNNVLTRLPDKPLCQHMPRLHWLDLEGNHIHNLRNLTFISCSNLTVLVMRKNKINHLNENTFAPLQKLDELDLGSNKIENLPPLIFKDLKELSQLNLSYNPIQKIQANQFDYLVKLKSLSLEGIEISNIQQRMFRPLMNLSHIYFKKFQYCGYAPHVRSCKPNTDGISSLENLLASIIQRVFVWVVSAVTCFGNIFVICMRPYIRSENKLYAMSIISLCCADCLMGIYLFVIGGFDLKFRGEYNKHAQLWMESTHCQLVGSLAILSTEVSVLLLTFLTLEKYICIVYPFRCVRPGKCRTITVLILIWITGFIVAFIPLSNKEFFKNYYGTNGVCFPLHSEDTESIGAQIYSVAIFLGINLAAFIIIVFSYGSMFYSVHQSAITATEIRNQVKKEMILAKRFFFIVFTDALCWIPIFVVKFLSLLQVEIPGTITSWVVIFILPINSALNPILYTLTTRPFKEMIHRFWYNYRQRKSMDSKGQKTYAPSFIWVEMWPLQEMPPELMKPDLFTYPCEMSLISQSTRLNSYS
Method: (§1) To determine the binding characteristics of wild type and mutant peptides, HEK293T cells expressing LGR7 or LGR8 were grown to 90% confluence, collected by centrifugation at 3000×g for 2 min, and washed two times in 2 ml of ice-cold binding buffer. Cells were resuspended in ice-cold binding buffer, and aliquots of cell suspension were incubated with increasing doses of purified recombinant peptides in the presence of 0.025 pmol of ¹²⁵I-labeled RLN2 tracer (Phoenix Pharmaceuticals, Burlingame, Calif.) at room temperature for 2 h. After washing three times in an ice-cold binding buffer, radioactivity bound to the cells was measured using a y-counter (EG&G Wallace, Gaithersburg, Md.). Total binding was determined in the absence, and nonspecific binding in the presence, of 25 nmol of unlabeled RLN2. In regular assays, total binding was ˜30,000 cpm, and nonspecific binding amounted to less than 20% of the total binding. Data points were collected in triplicate, and similar results were obtained in at least two independent assays.

[3] = target: T2, LGR7 (leucine-rich repeat-containing …); test: cell-based or functional assay
[4] = target: LGR8 (leucine-rich repeat-containing GPCR 8) (human) (UniProt Q8WXD0); test: cell-based or functional assay
LGR8 (leucine-rich repeat-containing GPCR 8) (human), sequence (Q8WXD0 whole entry): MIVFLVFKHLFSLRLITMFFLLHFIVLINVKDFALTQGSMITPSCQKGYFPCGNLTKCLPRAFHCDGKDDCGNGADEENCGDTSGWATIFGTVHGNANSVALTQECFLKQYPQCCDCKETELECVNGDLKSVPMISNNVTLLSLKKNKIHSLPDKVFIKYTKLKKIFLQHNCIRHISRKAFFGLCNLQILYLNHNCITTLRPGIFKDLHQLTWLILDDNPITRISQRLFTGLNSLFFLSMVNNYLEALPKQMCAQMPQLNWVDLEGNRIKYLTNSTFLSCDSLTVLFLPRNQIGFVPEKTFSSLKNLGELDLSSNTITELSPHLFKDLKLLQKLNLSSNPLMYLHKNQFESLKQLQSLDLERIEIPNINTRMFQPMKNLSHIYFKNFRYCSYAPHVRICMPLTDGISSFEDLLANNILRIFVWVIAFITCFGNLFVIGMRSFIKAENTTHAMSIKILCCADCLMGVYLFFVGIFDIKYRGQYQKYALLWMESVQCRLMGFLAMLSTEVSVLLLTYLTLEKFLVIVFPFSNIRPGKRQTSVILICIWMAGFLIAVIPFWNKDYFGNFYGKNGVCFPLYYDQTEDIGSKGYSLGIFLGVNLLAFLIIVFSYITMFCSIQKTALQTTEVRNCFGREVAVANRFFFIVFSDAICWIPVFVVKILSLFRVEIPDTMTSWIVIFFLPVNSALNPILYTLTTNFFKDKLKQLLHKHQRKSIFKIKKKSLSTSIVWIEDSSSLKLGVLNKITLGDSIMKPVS

[5] = target: T3, LGR8 (leucine-rich repeat-containing GPCR 8) (human, UniProt Q8WXD0 1-754); test: competition with 125I-RLN2 tracer on LGR8-expressing HEK293T cells
T3 construct: whole, on cells; The methods say only 'recombinant LGR8' stably expressed in HEK293T cells; also called RFXR2; recombinant LGR8
T3 sequence (Q8WXD0 whole entry): as above
Method: as §1

[6] = target: T3, LGR8 (leucine-rich repeat-containing …); test: cell-based or functional assay
[7] = target: T3, LGR8 (leucine-rich repeat-containing …); test: competition with 125I-RLN2 on LGR8-expressing HEK293T cells (Table 2 cell: ND, pIC50 not measurable)
Method: as §1

[8] = target: T3, LGR8 (leucine-rich repeat-containing …); test: cell-based or functional assay; remark: listed apart in the source

WT RLN2 (His2) (ligand)
pEC50, stimulation of cAMP production in LGR7-expressing HEK293T cells [1]: 8.77

WT RLN2 (His1) (ligand)
pEC50, stimulation of cAMP production in LGR7-expressing HEK293T cells [1]: 8.66

B1: WT RLN3 (recombinant human relaxin 3, Myc- and His6-tagged) (ligand, not shown: small tags and cut ends)
chain 1: RAAPYGVRLCGREFIRAVIFTCGGSRWHHHHHH
chain 2: DVLAGLSSSCCKWGCSKSEISSLC
modifications: not fully specified; ends and bridges not checked; also: N-terminal Myc epitope tag
pEC50, stimulation of cAMP production in LGR7-expressing HEK293T cells [1]: 7.73

B2: Nontagged human RLN2 peptide (ligand)
chain 1: SWMEEVIKLCGRELVRAQIAICGMSTWS
chain 2: QLYSALANKCCHVGCTKRSLARFC
modifications: not fully specified (bridges); ends and bridges not checked
notes: Used as a standard; also called Nontagged RLN2; nontagged wild type RLN2 peptide
pIC50 [2]: 8.78
pEC50, stimulation of cAMP production in LGR7-expressing HEK293T cells [3]: 6.53

B3: WT INSL3 (recombinant human insulin-like 3, Myc- and His6-tagged) (ligand, not shown: small tags and cut ends)
chain 1: PTPEMREKLCGHHFVRALVRVCGGPRWSTEAHHHHHH
chain 2: AAATNPARYCCLSGCTQQDLLTLCPY
pEC50, stimulation of cAMP production in LGR8-expressing HEK293T cells [4]: 9.03

B4: WT RLN2 (recombinant wild type human RLN2, Myc- and His6-tagged) (ligand, not shown: small tags and cut ends)
chain 1: SWMEEVIKLCGRELVRAQIAICGMSTWSHHHHHH
chain 2: QLYSALANKCCHVGCTKRSLARFC
notes: also called wild type RLN2; wild type peptide
pIC50 [2]: 8.72
pIC50 [5]: 7.9
pEC50, stimulation of cAMP production in LGR8-expressing HEK293T cells [6]: 7.41
pEC50, stimulation of cAMP production in LGR7-expressing HEK293T cells [3]: 9.3

B5: RLN2 R^A18A (ligand, not shown: small tags and cut ends)
chain 1: SWMEEVIKLCGRELVRAQIAICGMSTWSHHHHHH
chain 2: QLYSALANKCCHVGCTKASLARFC
pIC50 [2]: 8.42
pIC50 [5]: 7.46
pEC50, stimulation of cAMP production in LGR8-expressing HEK293T cells [6]: 7.56
pEC50, stimulation of cAMP production in LGR7-expressing HEK293T cells [3]: 9.67

B6: RLN2^A19-20 (ligand, not shown: small tags and cut ends)
chain 1: SWMEEVIKLCGRELVRAQIAICGMSTWSHHHHHH
chain 2: QLYSALANKCCHVGCTKRAAARFC
notes: It is read here as both residues changed to alanine
pIC50 [2]: 8.21
pIC50 [5]: 7.51
pEC50, stimulation of cAMP production in LGR8-expressing HEK293T cells [6]: 8.41
pEC50, stimulation of cAMP production in LGR7-expressing HEK293T cells [3]: 8.56

B7: RLN2^A22-23 (ligand, not shown: small tags and cut ends)
chain 1: SWMEEVIKLCGRELVRAQIAICGMSTWSHHHHHH
chain 2: QLYSALANKCCHVGCTKRSLAAAC
notes: as for B6
pIC50 [2]: 7.5
pEC50, stimulation of cAMP production in LGR7-expressing HEK293T cells [3]: 8.87
binding result [7]: no binding

B8: RLN2 R^A22A (ligand, not shown: small tags and cut ends)
chain 1: SWMEEVIKLCGRELVRAQIAICGMSTWSHHHHHH
chain 2: QLYSALANKCCHVGCTKRSLAAFC
modifications: not fully specified; ends and bridges not checked; also: N-terminal Myc epitope tag
notes: Construct with the 8-amino acid linker, processed to the mature two-chain form
pIC50 [2]: 8.42
pIC50 [5]: 6.8
pEC50, stimulation of cAMP production in LGR8-expressing HEK293T cells [6]: 7.51
pEC50, stimulation of cAMP production in LGR7-expressing HEK293T cells [3]: 10

B9: RLN2 T^A16A (ligand, not shown: small tags and cut ends)
chain 1: SWMEEVIKLCGRELVRAQIAICGMSTWSHHHHHH
chain 2: QLYSALANKCCHVGCAKRSLARFC
modifications: not fully specified; ends and bridges not checked; also: N-terminal Myc epitope tag
notes: as for B8
pIC50 [2]: 8.4
maximum LGR8-activation activity (cAMP production), against wild type RLN2 [8]: 2 fold
pIC50 [5]: 7.74
pEC50, stimulation of cAMP production in LGR8-expressing HEK293T cells [6]: 8.04
pEC50, stimulation of cAMP production in LGR7-expressing HEK293T cells [3]: 9.75

Reference: US20130244938A1 (Stanford University, published 2013)
